Laboratory results reported in publication PMC1277818, “Substrate specificity analysis of protein kinase complex Dbf2-Mob1 by peptide library and proteome array screening” (BMC Biochemistry, 2005).

Target: T1, FHHDbf2-H6Mob1TM9 (Saccharomyces cerevisiae, UniProt P22204+P40484)
T1 construct: made in house; host or cells: Hi5 insect cells (baculovirus)
T1 sequence (P22204 1-572): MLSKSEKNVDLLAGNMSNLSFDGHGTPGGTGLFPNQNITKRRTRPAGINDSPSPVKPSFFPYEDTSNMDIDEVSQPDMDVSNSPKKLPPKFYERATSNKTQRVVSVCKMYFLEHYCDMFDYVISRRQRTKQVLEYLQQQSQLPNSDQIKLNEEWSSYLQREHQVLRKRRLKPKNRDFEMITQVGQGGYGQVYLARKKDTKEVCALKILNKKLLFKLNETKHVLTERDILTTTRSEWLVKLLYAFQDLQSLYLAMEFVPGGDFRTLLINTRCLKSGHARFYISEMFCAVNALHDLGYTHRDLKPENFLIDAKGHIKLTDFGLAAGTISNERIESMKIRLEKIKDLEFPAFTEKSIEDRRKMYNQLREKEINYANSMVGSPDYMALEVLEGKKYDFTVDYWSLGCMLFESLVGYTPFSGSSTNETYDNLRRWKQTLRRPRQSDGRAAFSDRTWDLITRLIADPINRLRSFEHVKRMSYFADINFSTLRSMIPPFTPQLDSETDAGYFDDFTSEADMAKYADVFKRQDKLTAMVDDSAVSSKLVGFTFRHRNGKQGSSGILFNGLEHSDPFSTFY
T1 sequence (P40484 1-314 partner): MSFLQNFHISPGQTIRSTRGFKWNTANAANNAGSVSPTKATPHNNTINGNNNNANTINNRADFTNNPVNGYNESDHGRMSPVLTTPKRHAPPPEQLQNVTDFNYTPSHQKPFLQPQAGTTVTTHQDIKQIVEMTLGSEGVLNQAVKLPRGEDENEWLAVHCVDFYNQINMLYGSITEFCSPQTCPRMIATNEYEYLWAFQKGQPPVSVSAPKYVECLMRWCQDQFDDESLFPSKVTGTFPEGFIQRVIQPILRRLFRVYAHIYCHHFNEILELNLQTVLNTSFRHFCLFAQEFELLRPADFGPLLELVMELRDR
Experiment: Yeast proteome chip assay
Format: biochemical
Conditions: [γ-33P]ATP, chips in duplicate
Method: The relatively low sequence complexity of the Dbf2 phosphorylation motif diminished the power of using genome-wide bioinformatics screens to identify putative substrates. Accordingly, we carried out a proteome array screen to identify putative yeast substrates. […] After taking into account the proteins phosphorylated in the negative controls, 67 proteins were determined to be putative Dbf2-Mob1 substrates (Table 3).
Yeast proteome microarrays were prepared as previously described. Overexpressed GST-tagged yeast proteins were purified from ~4,400 yeast strains and spotted on slides. To determine the optimal amount of kinase to use for probing proteome chips, we performed trial assays as described (J. Ptacek et al., submitted). […] The full proteome array was probed with 4 μl ^FHHDbf2-^H6Mob1^TM9 in 200 μl of DKB supplemented with [γ-^33P]ATP. As a control, ^FHHDbf2(N305A)-^H6Mob1^TM9 was used to probe the proteome array. […] To control for autophosphorylated proteins, the proteome array was probed with 200 μl of DKB supplemented with [γ-^33P]ATP. Proteome chips were assayed in duplicate in each case. Data analysis was performed as described (J. Ptacek et al., submitted). Briefly, signals were analyzed by a computer algorithm designed to normalize background and identify signals as positive if 3 of 4 spots (each protein is spotted twice on each slide and each kinase or control was tested on 2 slides) were 2 standard deviations above background and the fourth spot was 1.5 standard deviations above background.

[1] = Table 3, GST fusion proteins on proteome chip, computer analysis
[2] = Table 4, the 25 proteins with highest signal relative to protein amount

Substance	Slide Signal (after normalization) [1]	Slide Signal (after normalization) [2]
YDL220C: GST fusion yeast protein on proteome chip	1.0274	1.0274
YDR171W: GST fusion yeast protein on proteome chip	0.442	
YMR229C: GST fusion yeast protein on proteome chip	2.6954	2.6954
YNL007C: GST fusion yeast protein on proteome chip	0.2239	
